Assay results: patent US20220257825A1

Target: cell adhesion mediating proteins (CAMP), e.g. integrins, on the cells of the pig skin
Assay: cell-based or functional assay

B1: C16spRGD (eADF4 (C16) genetically fused at the C-terminus to the tag spRGD, …) (protein)
chain: MASMTGGQQMGRGSMGSSAAAAAAAASGPGGYGPENQGPSGPGGYGPGGPGSSAAAAAAAASGPGGYGPENQGPSGPGGYGPGGPGSSAAAAAAAASGPGGYGPENQGPSGPGGYGPGGPGSSAAAAAAAASGPGGYGPENQGPSGPGGYGPGGPGSSAAAAAAAASGPGGYGPENQGPSGPGGYGPGGPGSSAAAAAAAASGPGGYGPENQGPSGPGGYGPGGPGSSAAAAAAAASGPGGYGPENQGPSGPGGYGPGGPGSSAAAAAAAASGPGGYGPENQGPSGPGGYGPGGPGSSAAAAAAAASGPGGYGPENQGPSGPGGYGPGGPGSSAAAAAAAASGPGGYGPENQGPSGPGGYGPGGPGSSAAAAAAAASGPGGYGPENQGPSGPGGYGPGGPGSSAAAAAAAASGPGGYGPENQGPSGPGGYGPGGPGSSAAAAAAAASGPGGYGPENQGPSGPGGYGPGGPGSSAAAAAAAASGPGGYGPENQGPSGPGGYGPGGPGSSAAAAAAAASGPGGYGPENQGPSGPGGYGPGGPGSSAAAAAAAASGPGGYGPENQGPSGPGGYGPGGPGGGSGGRGDSPG
  Average σmax (N), pulling test on pig skin stripes, 35 mg/ml, 30 min incubation: 5.29 N
  average maximal adhesion strength compared with C16 (no RGD), pulling test on pig skin: 80%
